In US20090081195A1 (OTTAWA HEALTH RESEARCH INSTITUTE, published 2009):

T1: GST-SLK 950-1202 (GST-tagged SLK ATH domain) (murine, UniProt O54988 981-1233)
T1 construct: Bacterially expressed GST fusion on glutathione sepharose; also called GST-ATH; not shown: glutathione S-transferase (GST) tag of pGEX-5X or pGEX-4T1 (Amersham)
T1 sequence: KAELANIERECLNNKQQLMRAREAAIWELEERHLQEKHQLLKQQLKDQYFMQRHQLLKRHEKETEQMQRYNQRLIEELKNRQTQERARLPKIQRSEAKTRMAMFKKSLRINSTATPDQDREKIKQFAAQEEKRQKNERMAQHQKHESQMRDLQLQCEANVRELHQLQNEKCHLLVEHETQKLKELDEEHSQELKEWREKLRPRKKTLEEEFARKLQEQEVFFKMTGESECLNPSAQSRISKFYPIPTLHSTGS


target: T1, GST-SLK 950-1202 (GST-tagged SLK ATH …); test: binding of [35S]-labeled Ldb2 deletions to GST-ATH
Procedure: (c) Schematics of Myc epitope-tagged SLK deletion mutants. […] (d) Co-transfection of HA-tagged Ldb2 and Myc-tagged SLK deletion constructs was performed in HEK 293 cells. Extracts were immunoprecipitated with anti-HA antibody (12CA5) and immunoblotted with anti-Myc antibody (9E10) (bottom panel). Expression of the transfected constructs was confirmed by western blotting (top and middle panels). […] (e) Reciprocal co-IP showing that full length HA-SLK associates with Myc-Ldb1 and 2. (f) Association of endogenous SLK and Ldb. Ldb1 was immunoprecipitated from protein lysates obtained from MEF cells and primary neurons and subjected to western blot analysis with an anti-SLK antibody. A 220 KDa band corresponding to SLK co-precipitated with […]. Reciprocal immunoprecipitations were also performed on N1E 115 neuroblastoma cells or primary cortical neurons. A 50 Kda band corresponding to Ldb1 co-precipitated with SLK. As a control for non-specific binding to the sepharose beads, protein-A sepharose beads alone were added to 400 μg of the same protein lysates. Similar results were obtained with Ldb2
To map the Ldb1/2 domains of interaction, [35S]-labeled deletions of Ldb1 were assayed for binding to a GST-tagged SLK ATH domain (FIG. 17a). […] In addition, versions of Ldb2 lacking the C-terminal LIM binding domain (ΔLBD) were able to bind the SLK ATH domain while the LBD of Ldb2 by itself could not bind (FIG. 17b). Further deletion of 62 amino acids from the carboxy terminal end of the dimerization domain (DDΔC) retained binding thus refining the Ldb2 binding region to the SLK ATH domain in the C-terminal 124 amino acids of Ldb2. An analogous set of Ldb1 deletion mutants were tested for binding to GST-ATH with similar results (data not shown).

| Binder | binding result |
| --- | --- |
| HA-Ldb2 DD (aa 1-186) (other, mouse, UniProt O55203 1-186, looked up, not shown: small tags and cut ends, [35S]-methionine label, In vitro translated; also called Ldb2 dimerization domain) MSSTPHDPFYSSPFGPFYRRHTPYMVQPEYRIYEMNKRLQSRTEDSDNLWWDAFATEFFEDDATLTLSFCLEDGPKRYTIGRTLIPRYFSTVFEGGVTDLYYILKHSKESYHNSSITVDCDQCAMVTQHGKPMFTKVCTEGRLILEFTFDDLMRIKTWHFTIRQYRELVPRSILAMHAQDPQVLDQ | binds |
| HA-Ldb2 NLS (aa 188-288) (other, mouse, UniProt O55203 188-288, looked up, not shown: small tags and cut ends, [35S]-methionine label, range 188-288; In vitro translated; also called Ldb2 nuclear localization signal domain) SKNITRMGLTNFTLNYLRLCVILEPMQELMSRHKTYNLSPRDCLKTCLFQKWQRMVAPPAEPTRQPTTKRRKRKNSTSSTSNSSAGNTTNSAGSKKKTPAA | binds |
| HA-Ldb2 LBD (aa 298-373) (other, mouse, UniProt O55203 298-373, looked up, not shown: small tags and cut ends, [35S]-methionine label, In vitro translated) DVMVVGEPTLMGGEFGDEDERLITRLENTQYDAANGMDDEEDFNNSPALGNNSPWNSKPPATQETKSENAPPQASQ | no binding |
